According to PMC11316256:

What was measured:
[1] = biological target: CD177 (allele 263K431G) on 293 cells (human) (UniProt Q8N6Q3); test: bead-rosette formation; hIgG coupled to M-450 Epoxy Dynabeads, mixed with 293 cells at 3.5 beads per cell; beads on cells with two or more beads counted from one hundred random cells
[2] = biological target: CD177 (allele 263K431G) on 293 cells (human) (UniProt Q8N6Q3)
[3] = biological target: CD177 (allele 263K431R) on 293 cells (human) (UniProt Q8N6Q3)
CD177 (allele 263K431R) on 293 cells (human), sequence (Q8N6Q3 22-408): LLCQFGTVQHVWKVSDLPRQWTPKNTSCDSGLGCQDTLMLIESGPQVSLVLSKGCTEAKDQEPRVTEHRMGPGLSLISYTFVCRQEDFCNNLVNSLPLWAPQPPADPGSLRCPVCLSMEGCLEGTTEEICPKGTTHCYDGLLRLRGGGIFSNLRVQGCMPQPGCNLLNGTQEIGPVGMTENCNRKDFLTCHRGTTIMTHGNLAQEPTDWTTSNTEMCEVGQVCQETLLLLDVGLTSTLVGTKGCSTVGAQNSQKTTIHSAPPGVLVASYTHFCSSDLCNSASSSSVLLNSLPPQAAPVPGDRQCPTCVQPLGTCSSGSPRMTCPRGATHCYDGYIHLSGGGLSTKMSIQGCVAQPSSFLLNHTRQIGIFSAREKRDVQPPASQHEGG

CD177 (allele 263K431G) on 293 cells (human), sequence (Q8N6Q3 22-408): as above

bound beads per 100 cells (beads per 100 cells) [1]	ADCC (% specific release) of NK-92 cells expressing the CD177-263K431G allele against SKOV-3 cells with trastuzumab 5 μg/ml, E:T 20:1 [2]	ADCC (% specific release) of NK-92 cells expressing the CD177-263K431R allele against SKOV-3 cells with trastuzumab 5 μg/ml, E:T 20:1; failed to mediate ADCC [3]	Substance
123	–	–	Human serum IgG (hIgG) (antibody)
–	8.93%	0.11%	Trastuzumab/Herceptin (antibody)
